Changes are numbered by the printed parent chain.

Conditions in all cases: protein: recombinant; tags: His; chain copies: 2; label: 32P end label
In series [1] the target is T1, HIS-Yna2p(1-180) (Hansenula polymorpha (syn. Pichia …, UniProt Q9HFM7 1-180)).
T1 sequence: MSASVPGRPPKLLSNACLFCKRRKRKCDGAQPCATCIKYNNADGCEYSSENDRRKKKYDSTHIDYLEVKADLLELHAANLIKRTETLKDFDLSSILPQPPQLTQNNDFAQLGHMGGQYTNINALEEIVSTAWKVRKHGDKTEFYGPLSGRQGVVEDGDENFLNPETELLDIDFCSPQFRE
Put plainly: EMSA; poly(dIdC); no detectable complex; EMSA: 75 ng protein in 10 ul KCl 1 mM, spermidine 80 mM (so in the source), 0.1 mg/ml poly(dIdC), on ice then 30 min at room temperature with probe; 6% PAGE, 50% glycerol, 0.5x TBE; pH not stated. Background: Mobility shift assays separate free from complexed probe on a gel.

Series [2] deals with T2, HIS-Yna1p(1-185) (Hansenula polymorpha (syn. Pichia …, UniProt O93984 1-185)).
T2 sequence: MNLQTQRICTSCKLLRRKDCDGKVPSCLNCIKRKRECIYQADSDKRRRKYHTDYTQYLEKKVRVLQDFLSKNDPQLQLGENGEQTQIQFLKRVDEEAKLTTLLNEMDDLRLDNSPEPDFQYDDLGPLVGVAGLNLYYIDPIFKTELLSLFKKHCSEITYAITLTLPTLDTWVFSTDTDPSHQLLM
Description: EMSA; poly(dIdC); complex abrogated by 1x-2x unlabelled probe; less stable than with probe 1; EMSA: 75 ng protein in 10 ul KCl 1 mM, spermidine 80 mM (so in the source), 0.1 mg/ml poly(dIdC), on ice then 30 min at room temperature with probe; 6% PAGE, 50% glycerol, 0.5x TBE; pH not stated.

In series [3] the target is T2, HIS-Yna1p(1-185). Description: EMSA; poly(dIdC); complex formation disrupted; EMSA: 75 ng protein in 10 ul KCl 1 mM, spermidine 80 mM (so in the source), 0.1 mg/ml poly(dIdC), on ice then 30 min at room temperature with probe; 6% PAGE, 50% glycerol, 0.5x TBE; pH not stated.
The target in series [4] is T2, HIS-Yna1p(1-185). Description: EMSA; poly(dIdC); binding disrupted; EMSA: 75 ng protein in 10 ul KCl 1 mM, spermidine 80 mM (so in the source), 0.1 mg/ml poly(dIdC), on ice then 30 min at room temperature with probe; 6% PAGE, 50% glycerol, 0.5x TBE; pH not stated.
Series [5] concerns the target T1, HIS-Yna2p(1-180). Description: EMSA; poly(dIdC); EMSA: 75 ng protein in 10 ul KCl 1 mM, spermidine 80 mM (so in the source), 0.1 mg/ml poly(dIdC), on ice then 30 min at room temperature with probe; 6% PAGE, 50% glycerol, 0.5x TBE; pH not stated.
Series [6] has as its target T2, HIS-Yna1p(1-185). Put plainly: EMSA; poly(dIdC); complex diminished by 1x-2x unlabelled probe; EMSA: 75 ng protein in 10 ul KCl 1 mM, spermidine 80 mM (so in the source), 0.1 mg/ml poly(dIdC), on ice then 30 min at room temperature with probe; 6% PAGE, 50% glycerol, 0.5x TBE; pH not stated.

B1: YNT1 probe 2 (dsDNA)
DNA 1: GGCTAGCATCCCGCTCATCGGAGAATATTCTGC
DNA 2: GCAGAATATTCTCCGATGAGCGGGATGCTAGCC
On to B1, for which the binding result in the series with HIS-Yna2p(1-180) [1] is “no binding”; with HIS-Yna1p(1-185) [2], “binds”.

B2: YNT1 probe 2 m1 (dsDNA)
DNA 1: B1 DNA 1 with C11A, C12A, G13T
DNA 2: B1 DNA 2 with C21A, G22T, G23T
Regarding B2, in the series with HIS-Yna1p(1-185) [3], the binding result was “no binding”.

B3: YNT1 probe 2 m2 (dsDNA)
DNA 1: B1 DNA 1 with C19A, G20T, G21T
DNA 2: B1 DNA 2 with C13A, C14A, G15T
Regarding B3, the binding result with HIS-Yna1p(1-185) [4] is “no binding”.

B4: YNT1 probe 1 (dsDNA)
DNA 1: CCCGCTCATCGGAGAATATTCTGCTCAAAATTAAGGATGCCCAT
DNA 2: ATGGGCATCCTTAATTTTGAGCAGAATATTCTCCGATGAGCGGG
For the molecule B4, the binding result in the series with HIS-Yna2p(1-180) [5] and with HIS-Yna1p(1-185) [6] was “binds” in each case.
